Assay: yeast display, Sf9 membrane polyspecificity reagent, FACS + sequencing; frameworks hold sequencing errors
How it was run: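 Nanobodies came from a synthetic yeast display library in Saccharomyces cerevisiae BJ5465, induced with galactose for 36–48 hours and stained for 1 hour at 4 °C with 10% biotinylated, detergent-solubilized Sf9 membrane reagent. Cells were enriched on streptavidin microbeads and then FACS-sorted, with low and high (top ~1%) gates set on anti-HA fluorescence for expression and streptavidin fluorescence for reagent binding. Each polyreactivity label reflects the gate a clone came from. Genes were amplified by colony PCR, sequenced by MiSeq 2 × 250 and filtered by CDR length.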
With “QVQLVESGGGLVQAGGSLRLSCAASGFTFPANAMGWYRQAPGKERELVATITWSGGNTYYADSVKGRFTISRDNAKNTVYLQMNSLKPEDTAVYYCAKDYDPYHEQQSSEHDDYWGQGTQVTVSS” the “polyreactivity (PSR sort gate)” value was “low polyreactivity”.
With “QVQLVESGGGLVQAGGSLRLSCAASGFTFPFYAMGWYRQAPGKERELVAAITSRGGSTYYADSVKGRFTISRDNAKNTVYLQMNSLKPEDTAVYYCAADESGADYYYWGQGTQVTVSS” the “polyreactivity (PSR sort gate)” value was “high polyreactivity”.
For “QVQLVESGGGLVQAGGSLRLSCAASGFTFPFYTMGWYRQAPGKERELVAAITFSGDSTYYADSVKGRFTISRDNAKNTVYLQMNSLKPEDTAVYYCAVASYWGPEYDYWGQGTQVTVSS”, the “polyreactivity (PSR sort gate)” value was “low polyreactivity”.
In the case of “QVQLVESGGGLVQAGGSLRLSCAASGFTFPGYAMGWYRQAPGKERELVAAISYSSGSTYYADSVKGRFTISRDNAKNTVYLQMNSLKPEDTAVYYCAAYFSPVGFQYDYWGQGTQVTVSS”, the “polyreactivity (PSR sort gate)” value is reported as “high polyreactivity”.
For “QVQLVESGGGLVQAGGSLRLSCAASGFTFPLYAMGWYRQAPGKERELVAVISRSGGSTYYADSVKGRFTISRDNAKNTVYLQMNSLKPEDTAVYYCAARLVPRSPERGNYDYWGQGTQVTVSS”, the “polyreactivity (PSR sort gate)” value was “high polyreactivity”.
With “QVQLVESGGGLVQAGGSLRLSCAASGFTFPQNAKGWYRQAPGKERELVAAITNGGTTYYADSVKGRFTISRDNAKNTVYLQMNSLKPEDTAVYYCAAYTYRYGSFKYGYWGQGTQVTVSS” the “polyreactivity (PSR sort gate)” value was “low polyreactivity”.
In the case of “QVQLVESGGGLVQAGGSLRLSCAASGFTFPRYAMGWYRQAPGKERELVAAITVGGGRTYYADSVKGRFTISRDNANNTVYLQMNSLKPEDTAVYYFAADSHASTYDYWGQGTQVTVSS”, the “polyreactivity (PSR sort gate)” value is reported as “low polyreactivity”.
In the case of “QVQLVESGGGLVQAGGSLRLSCAASGFTFPSNAMGWYRQAPGKERELYAAISSTDSTNYADSVKGRFTISRDNAKNTFYLQMNSLKPEDTAVYYCAKRYPRYRYNTRGNDYWGQGSQVTVSS”, the “polyreactivity (PSR sort gate)” value is reported as “low polyreactivity”.
In the case of “QVQLVESGGGLVQAGGSLRLSCAASGFTFPVNAMGWYRQAPGKERELVAAITSGGRTNYADSVKGRFTISRDNAKNTVYLQMNSLKPEDTAVYYCAAKFGYYWNSRTSGYWGQGTQVTVSS”, the “polyreactivity (PSR sort gate)” value is reported as “high polyreactivity”.
In the case of “QVQLVESGGGLVQAGGSLRLSCAASGFTFPVYAMGWYRPAPGIEREFVAASTKSGGGTYYADSVKGRCTLSRDNAKKTVYGQMNSLKPEETAVYYCAKASRRFLTLGSDYWGQGTQVTVSS”, the “polyreactivity (PSR sort gate)” value is reported as “high polyreactivity”.
For “QVQLVESGGGLVQAGGSLRLSCAASGFTFPYNAMGWYRPAPGTARELVAGISYGGGRTYYADSVKGRFTFSRDNAKNTVYLQMNSLKPEDTAVYYCARRPGAWKYVYTGDYWGQGTQVTVSS”, the “polyreactivity (PSR sort gate)” value was “high polyreactivity”.
For “QVQLVESGGGLVQAGGSLRLSCAASGFTFPYNAMGWYRQAPGKERELVAAISRGGGRTYYADSVKGRFTISRDNAKNTVYLQMNSLKPEDTAVYYCAKAPGQDTPYPYGYWGQGTQVTVSS”, the “polyreactivity (PSR sort gate)” value was “high polyreactivity”.
With “QVQLVESGGGLVQAGGSLRLSCAASGFTFPYNAMGWYRQPPGKERELVAAISRGAGRTYYADSVKGRFTISRDNAKNTVYLQMNSLKQEDTAVYYCAKAPGQDTPYPYGYWGQGTQVTVSS” the “polyreactivity (PSR sort gate)” value was “high polyreactivity”.
With “QVQLVESGGGLVQAGGSLRLSCAASGFTFPYYAMGWYRQAPGKERELVARISSGGSTNYADSVKGRFTISRDNAMNTVYLEMNSLKPEDTAVYYCNKGWYYRPRFYSSSDYWGQGTQVTVSS” the “polyreactivity (PSR sort gate)” value was “high polyreactivity”.
With “QVQLVESGGGLVQAGGSLRLSCAASGFTFPYYTMGWYRQAPGKERELVAAINRGGGSTYYADSVKGRFTISRDNAKNTVYLHMNSLKPEDTAVYYCACLRCLFPGRFDYWGQSTQVTVSS” the “polyreactivity (PSR sort gate)” value was “high polyreactivity”.
For “QVQLVESGGGLVQAGGSLRLSCAASGFTFPYYTMGWYRQAPGKERELVAAISKSGGSTYYADSVKGRFTISRDNAKNTVYLEMHSLKPEDTAVYYCNARRGSPAPYDYWGQGTQVTVSS”, the “polyreactivity (PSR sort gate)” value was “high polyreactivity”.
In the case of “QVQLVESGGGLVQAGGSLRLSCAASGFTFQAYAMGWYRQAPGKERELVAAISKSGGSTYYADSVKGRFTISRDNAKNTVYLQMNSLKPEDTAVYYCAARSWERYRAFIYWGQGTQVTVSS”, the “polyreactivity (PSR sort gate)” value is reported as “high polyreactivity”.
With “QVQLVESGGGLVQAGGSLRLSCAASGFTFQFYAMGWSRPAPGKERELVAAITWSGGSTYYADSVKGRFTISRDNAKNTVYLQMNSLKPEDTAVYYCAKDRRSYLSYIYDYWGQGTQVNVSS” the “polyreactivity (PSR sort gate)” value was “high polyreactivity”.
With “QVQLVESGGGLVQAGGSLRLSCAASGFTFQNNVMGWYRQAPGKERELVAAINSSGRTYYADSVKGRFTISRDNAKNTVYLQMNSLKPEDTAVFYCAASRRYRGVNRPGDYWGQGTQVTVSS” the “polyreactivity (PSR sort gate)” value was “high polyreactivity”.
In the case of “QVQLVESGGGLVQAGGSLRLSCAASGFTFQNYAMGWYRQAPGKERELVAAIDSRGGRTYYADSVKGRFTISRDNAKNTVYLQMNSLNPEDTAVYYCAGAENKRFGSVGYYYWGQGTQVTVSS”, the “polyreactivity (PSR sort gate)” value is reported as “low polyreactivity”.
For “QVQLVESGGGLVQAGGSLRLSCAASGFTFQRYTMGWYRQAPGKERELVAAITRSGGRTYYADSVKGRFTISRDNAKNTVYLQMNSLKPEDTAVYYCAVDYRTRGDYWGQGTQVTVSS”, the “polyreactivity (PSR sort gate)” value was “high polyreactivity”.
For “QVQLVESGGGLVQAGGSLRLSCAASGFTFQWYGMGWYRQAPGKERELVAAITWSGGRTNYADSVKGRFTISRDNAKNTVYLQMNSLKPEDTAVYYCNKVFPRRGGDDNYWGQGTQVTVSS”, the “polyreactivity (PSR sort gate)” value was “high polyreactivity”.
With “QVQLVESGGGLVQAGGSLRLSCAASGFTFQYSAMGWSRQAPGKERDVVAAIRSNGGSTYYADSVKGRFTISRDNAKNTVYLQMNSLKPEDTAVYYSAARAYKTYDWGQGTQVTVSS” the “polyreactivity (PSR sort gate)” value was “high polyreactivity”.
In the case of “QVQLVESGGGLVQAGGSLRLSCAASGFTFQYYAKGWYRQAPGKERELVAAISSSGGSTFYADSVKGRFTSSRDNAKNTVYLQMNSLKPEDTAVYYCATYTSPGYYYWGQGTQVTVSS”, the “polyreactivity (PSR sort gate)” value is reported as “high polyreactivity”.
In the case of “QVQLVESGGGLVQAGGSLRLSCAASGFTFQYYAMGWYRQAPGKERELVAAISGTSGSTRYADSVKGRFTISRDNSKNTVYLQMNSLKPEDSAVYYCAAGSRGKVPVGLRYGYYYWGQGTQVTVSS”, the “polyreactivity (PSR sort gate)” value is reported as “high polyreactivity”.
With “QVQLVESGGGLVQAGGSLRLSCAASGFTFQYYAMGWYRQAPGKERELVAAISWSGDSTYYADSVKGRFTISRDNAKNTVYLQMNSLKPEDTAVYYCAVYYTRGYDYWGQGTQVTVSS” the “polyreactivity (PSR sort gate)” value was “high polyreactivity”.
In the case of “QVQLVESGGGLVQAGGSLRLSCAASGFTFQYYAMGWYRQAPGKERELVATITTSGGNTYYADSVKGRFTISRDNAKNTVYLQMNSLKPEDTAVYYCAARNARYVHTMEYWGQGTQVTVSS”, the “polyreactivity (PSR sort gate)” value is reported as “high polyreactivity”.
In the case of “QVQLVESGGGLVQAGGSLRLSCAASGFTFQYYAMGWYRQAPGKERELVPSISWSGGSTYYADSVKGRFTISRDHAKNTVYFQMNSLKPEDTAVYYCADSVTYLFCSARFSAYGYWGQGTQVTVSS”, the “polyreactivity (PSR sort gate)” value is reported as “high polyreactivity”.
In the case of “QVQLVESGGGLVQAGGSLRLSCAASGFTFQYYTKGWYRQAPGKERELVAAISARGGSTYYADSVKGRFTISRDNAKNTVYLQMNSLKPEDTAVYYCNTVGIGAWGYSYPDEDNYWGQGTQVTVSS”, the “polyreactivity (PSR sort gate)” value is reported as “low polyreactivity”.
In the case of “QVQLVESGGGLVQAGGSLRLSCAASGFTFRANGMGWSRQAPGKERELVAVITSGGTTNYADSVKGRFTISRDNAKNTVYLQMNSLKPEDTAVYYCAVPYEPTSIPERRDYYRADDYWGQGTQVTVSS”, the “polyreactivity (PSR sort gate)” value is reported as “low polyreactivity”.
With “QVQLVESGGGLVQAGGSLRLSCAASGFTFRANGMGWYRQAPGKERELVATITSGGTTNYADSVKGRLTISRDNAKNTVYLQMNSLKPEDTAVYYCNAGSVSDRQMDYWGQGTQVTVSS” the “polyreactivity (PSR sort gate)” value was “low polyreactivity”.
For “QVQLVESGGGLVQAGGSLRLSCAASGFTFRAYAMGWSRQAPGKERELVAAISTGGGSTYYADSVKGRFTISRDNAKNTVYLQMNSLKPEDTAVYYCNALPQRRYYYWGQGTQVTVSS”, the “polyreactivity (PSR sort gate)” value was “high polyreactivity”.
In the case of “QVQLVESGGGLVQAGGSLRLSCAASGFTFRAYVMGWDRQAPGKERELVASISKRGGNTYYADSVKGRFTISRDNAKNTVYLQMNSLKPEDTAVYYCAVDFFGDRGDYDYWGQGTQVTVSS”, the “polyreactivity (PSR sort gate)” value is reported as “high polyreactivity”.
In the case of “QVQLVESGGGLVQAGGSLRLSCAASGFTFRDYAMGWYRQAPGKERELVAAITRGGSTNYADSVKGRFTISRDNAKNTVYLQMNSLKPEDTAVYYCAATPSWRWHVFAEFNSWGQGTQVTVSS”, the “polyreactivity (PSR sort gate)” value is reported as “high polyreactivity”.
For “QVQLVESGGGLVQAGGSLRLSCAASGFTFRDYAMGWYRQAPGKERELVAAITRRGGNTYYADSVKGRFTISRDNAKNTVYLQMNSLKPEDTAVYYCAARALSGHYDYWGQGTQVTVSS”, the “polyreactivity (PSR sort gate)” value was “high polyreactivity”.
With “QVQLVESGGGLVQAGGSLRLSCAASGFTFRDYAMGWYRQAPGQERELVATITWRVGSTFYADSVKGRFTISRDNAKNTVYLQMNTLKPEDTADDYCAARWSTSYGPFDYWGQGTQVTVSS” the “polyreactivity (PSR sort gate)” value was “low polyreactivity”.
With “QVQLVESGGGLVQAGGSLRLSCAASGFTFRDYVMGWYRQAPGKERELVAAISRSGASTYYADSVKGRFTISRDNAKNTVYLQMNSLKPEDTAVYYCAKTQAGYSPGTYYYWGQGTQVTVSS” the “polyreactivity (PSR sort gate)” value was “high polyreactivity”.
With “QVQLVESGGGLVQAGGSLRLSCAASGFTFREYAMGWYRQAPGKERELVAAIDWSGGSTYYADSVKGRFTISRDNAKNTVYLQMNRLKPEDTAVYYCNVDFYDWYVYLWYVDYDYCGQGTQVTVSS” the “polyreactivity (PSR sort gate)” value was “high polyreactivity”.
For “QVQLVESGGGLVQAGGSLRLSCAASGFTFRFNAMGWYRHAPGKERELVAGITSGGTTNYAYSVKGRFTISRDNAKNTVYLHMNSLKPEDTAVYYCNAAWYRWKQRYDYWGQGTLVTVSS”, the “polyreactivity (PSR sort gate)” value was “low polyreactivity”.
For “QVQLVESGGGLVQAGGSLRLSCAASGFTFRFYAMGWYRQAPGKERELVATISSRGGRTYYADSVKGRFTISRDNAKNTVYLQMNSLKPEDTAVYYCAADQKSQYQGNYWGQGTQVTVSS”, the “polyreactivity (PSR sort gate)” value was “high polyreactivity”.
For “QVQLVESGGGLVQAGGSLRLSCAASGFTFRGNAMGWYRQAPGKERELVAAISYIGGTTYYADSVKGRFTISRDNAKNTVYLQMNSLKPEDTAVYYCAADLYRSILKPDYDYWGQGTQVTVSS”, the “polyreactivity (PSR sort gate)” value was “high polyreactivity”.

Reference: the nanobody polyreactivity screen of Harvey et al. (2022)
